{
  "source": "the RNAGym collection of RNA variant scans (doi:10.1093/nar/gkz1192)",
  "parents": {"B1": {"name": "CPEB3 Ribozyme (parent)", "chain": "UAACAGGGGGCCACAGCAGAAGCGUUCACGUCGCAGCCCCUGUCAGAUUCUGGUGAAUCUGCGAAUUCUGCUGUAUAUCUC"}},
  "data": [
    {"variants_of": "B1", "experiment": "self-cleavage, relative activity (ratio to wild type); higher = more cleavage; in vitro, sequencing", "outline": "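CPEB3 self-cleaving ribozyme mutant libraries were made by rounds of error-prone PCR, barcoded, and transcribed in vitro with T7 RNA polymerase for 5 hours at 37°C. Cleavage occurred during transcription and a 15 min DNase I step before EDTA stop. RNAs were reverse transcribed with template switching and Illumina-sequenced, with DNA sequencing mapping barcodes to variants. Relative activity is the variant's cleaved/total read fraction divided by wild type's (minimum 5 reads), averaged across three batches.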", "values": [
      {"variant": "UAACAGGGGGCCACAGCAGAAGCGUUCGCGUCGCAACCCCUGUCAGAUUCUGGUGAAUCUGCGAAUUCUGCUGUAUAUCUC", "note": "[A28G G36A]", "self-cleavage": 0.15},
      {"variant": "UAACAGGGGGCCACAGCAGAAGCGUUCGCGUCGCAUCCCCUGUCAGAUUCUGGUGAAUCUGCGAAUUCUGCUGUAUAUCUC", "note": "[A28G G36U]", "self-cleavage": 0.15},
      {"variant": "UAACAGGGGGCCACAGCAGAAGCGUUCGCGUCGCAGCCUCUGUCAGAUUCUGGUGAAUCUGCGAAUUCUGCUGUAUAUCUC", "note": "[A28G C39U]", "self-cleavage": 0.57},
      {"variant": "UAACAGGGGGCCACAGCAGAAGCGUUCGCGUCGCAGCCACUGUCAGAUUCUGGUGAAUCUGCGAAUUCUGCUGUAUAUCUC", "note": "[A28G C39A]", "self-cleavage": 0.06},
      {"variant": "UAACAGGGGGCCACAGCAGAAGCGUUCGCGUCGCAGCCCCUGUCAGAUUCUGGUCAAUCUGCGAAUUCUGCUGUAUAUCUC", "note": "[A28G G55C]", "self-cleavage": 0.39},
      {"variant": "UAACAGGGGGCCACAGCAGAAGCGUUCGCGUCGCAGCCCCUGUCAGAUUCUGGUAAAUCUGCGAAUUCUGCUGUAUAUCUC", "note": "[A28G G55A]", "self-cleavage": 0.33},
      {"variant": "UAACAGGGGGCCACAGCAGAAGCGUUCGCGUCGCAGCCCCUGUCAGAUUCUGGUUAAUCUGCGAAUUCUGCUGUAUAUCUC", "note": "[A28G G55U]", "self-cleavage": 0.68},
      {"variant": "UAACAGGGGGCCACAGCAGAAGCGUUCGCGUCGCAGCCCCUGUCAGAUUCUGGUGAAUUUGCGAAUUCUGCUGUAUAUCUC", "note": "[A28G C59U]", "self-cleavage": 0.54},
      {"variant": "UAACAGGGGGCCACAGCAGAAGCGUUCGCGUCGCAGCCCCUGUCAGAUUCUGGUGAAUAUGCGAAUUCUGCUGUAUAUCUC", "note": "[A28G C59A]", "self-cleavage": 0.2},
      {"variant": "UAACAGGGGGCCACAGCAGAAGCGUUCGCGUCACAGCCCCUGUCAGAUUCUGGUGAAUCUGCGAAUUCUGCUGUAUAUCUC", "note": "[A28G G33A]", "self-cleavage": 0.22},
      {"variant": "UAACAGGGGGCCACAGCAGAAGCGUUCGCGUCUCAGCCCCUGUCAGAUUCUGGUGAAUCUGCGAAUUCUGCUGUAUAUCUC", "note": "[A28G G33U]", "self-cleavage": 0.16},
      {"variant": "UAACAGGGGGCCACAGCAGAAGCGUUCGCGUCGCAGCCCCUGUCAGAUUCUGGUGAAUCUGCGAAUUGUGCUGUAUAUCUC", "note": "[A28G C68G]", "self-cleavage": 0.14},
      {"variant": "UAACAGGGGGCCACAGCAGAAGCGUUCGCGUCGCAGCCCCUGUCAGAUUCUGGUGAAUCUGCGAAUUUUGCUGUAUAUCUC", "note": "[A28G C68U]", "self-cleavage": 0.48},
      {"variant": "UAACAGGGGGCCACAGCAGAAGCGUUCGCGUCGCAGCCCCUGUCAGAUUCUGGUGAAUCUGCGAAUUAUGCUGUAUAUCUC", "note": "[A28G C68A]", "self-cleavage": 0.17},
      {"variant": "UAACAGGGGGCCACAGCAGAAGCGUUCGCGUCGCAGCCCCUGUCAGAUUCUGAUGAAUCUGCGAAUUCUGCUGUAUAUCUC", "note": "[A28G G53A]", "self-cleavage": 0.78},
      {"variant": "UAACAGGGGGCCACAGCAGAAGCGUUCGCGUCGCAGCCCCUGUCAGAUUCUCGUGAAUCUGCGAAUUCUGCUGUAUAUCUC", "note": "[A28G G52C]", "self-cleavage": 0.42},
      {"variant": "UAACAGGGGGCCACAGCAGAAGCGUUCGCGUCGCAGCCCCUGUCAGAUUCUAGUGAAUCUGCGAAUUCUGCUGUAUAUCUC", "note": "[A28G G52A]", "self-cleavage": 0.76},
      {"variant": "UAACAGGGGGCCACAGCAGAAGCGUUCGCGUCGGAGCCCCUGUCAGAUUCUGGUGAAUCUGCGAAUUCUGCUGUAUAUCUC", "note": "[A28G C34G]", "self-cleavage": 0.35},
      {"variant": "UAACAGGGGGCCACAGCAGAAGCGUUCGCGUCGAAGCCCCUGUCAGAUUCUGGUGAAUCUGCGAAUUCUGCUGUAUAUCUC", "note": "[A28G C34A]", "self-cleavage": 0.32},
      {"variant": "UAACAGGGGGCCACAGCAGAAGCGUUCGCGUCGUAGCCCCUGUCAGAUUCUGGUGAAUCUGCGAAUUCUGCUGUAUAUCUC", "note": "[A28G C34U]", "self-cleavage": 0.32},
      {"variant": "UAACAGGGGGCCACAGCAGAAGCGUUCGCGUCGCAGCCCUUGUCAGAUUCUGGUGAAUCUGCGAAUUCUGCUGUAUAUCUC", "note": "[A28G C40U]", "self-cleavage": 0.48},
      {"variant": "UAACAGGGGGCCACAGCAGAAGCGUUCGCGUCGCAGCCCGUGUCAGAUUCUGGUGAAUCUGCGAAUUCUGCUGUAUAUCUC", "note": "[A28G C40G]", "self-cleavage": 0.22},
      {"variant": "UAACAGGGGGCCACAGCAGAAGCGUUCGCGUCGCAGACCCUGUCAGAUUCUGGUGAAUCUGCGAAUUCUGCUGUAUAUCUC", "note": "[A28G C37A]", "self-cleavage": 0.21},
      {"variant": "UAACAGGGGGCCACAGCAGAAGCGUUCGCGUCGCAGUCCCUGUCAGAUUCUGGUGAAUCUGCGAAUUCUGCUGUAUAUCUC", "note": "[A28G C37U]", "self-cleavage": 0.43},
      {"variant": "UAACAGGGGGCCACAGCAGAAGCGUUCGCGUCGCAGCGCCUGUCAGAUUCUGGUGAAUCUGCGAAUUCUGCUGUAUAUCUC", "note": "[A28G C38G]", "self-cleavage": 0.25},
      {"variant": "UAACAGGGGGCCACAGCAGAAGCGUUCGCGUCGCAGCACCUGUCAGAUUCUGGUGAAUCUGCGAAUUCUGCUGUAUAUCUC", "note": "[A28G C38A]", "self-cleavage": 0.29},
      {"variant": "UAACAGGGGGCCACAGCAGAAGCGUUCGCGUCGCAGCUCCUGUCAGAUUCUGGUGAAUCUGCGAAUUCUGCUGUAUAUCUC", "note": "[A28G C38U]", "self-cleavage": 0.54},
      {"variant": "UAACAGGGGGCCACAGCAGAAGCGUUCGCGUCGCAGCCCCUGUCAGAUUCUGGUGAAUCUGCGAAUUCUACUGUAUAUCUC", "note": "[A28G G70A]", "self-cleavage": 0.23},
      {"variant": "UAACAGGGGGCCACAGCAGAAGCGUUCGUGUCGCAGCCCCUGUCAGAUUCUGGUGAAUCUGCGAAUUCUGCUGUAUAUCUC", "note": "[A28G C29U]", "self-cleavage": 0.52},
      {"variant": "UAACAGGGGGCCACAGCAGAAGCGUUCGCGUCGCAGCCCCUAUCAGAUUCUGGUGAAUCUGCGAAUUCUGCUGUAUAUCUC", "note": "[A28G G42A]", "self-cleavage": 0.46},
      {"variant": "UAACAGGGGGCCACAGCAGAAGCGUUCGCGUCGCAGCCCCUUUCAGAUUCUGGUGAAUCUGCGAAUUCUGCUGUAUAUCUC", "note": "[A28G G42U]", "self-cleavage": 0.26},
      {"variant": "UAACAGGGGGCCACAGCAGAAGCGUUCGCGUCGCAGCCCCUCUCAGAUUCUGGUGAAUCUGCGAAUUCUGCUGUAUAUCUC", "note": "[A28G G42C]", "self-cleavage": 0.18},
      {"variant": "UAACAGGGGGCCACAGCAGAAGCGUUCGCGUCGCAGCCCCUGUCAGAUUCUGGUGAAUCUGCGAAUUCUGAUGUAUAUCUC", "note": "[A28G C71A]", "self-cleavage": 0.14},
      {"variant": "UAACAGGGGGCCACAGCAGAAGCGUUCGCGUCGCAGCCCCUGUCAGAUUCUGGUGAAUCUGCGAAUUCUGUUGUAUAUCUC", "note": "[A28G C71U]", "self-cleavage": 0.15}
    ]}
  ]
}
